Columns and labels:
Conditions in all cases: CHO
[1] = substrate: CC(C)[C@H](N)C(=O)OCCOCn1cnc2c(=O)nc(N)[nH]c21
Description: TP_TRANSPORTER: uptake (pH 5.5) in PEPT1-expressing CHO cells

[2] = substrate: CC(C)[C@H](N)C(=O)OCCOCn1cnc2c(=O)nc(N)[nH]c21; remark: listed apart in the source
Description: TP_TRANSPORTER: uptake (pH 7.9) in PEPT1-expressing CHO cells

[3] = substrate: CC(C)[C@H](N)C(=O)OCCOCn1cnc2c(=O)nc(N)[nH]c21; remark: listed apart in the source
Description: TP_TRANSPORTER: uptake (pH 7.5) in PEPT1-expressing CHO cells

[4] = substrate: CC(C)[C@H](N)C(=O)OCCOCn1cnc2c(=O)nc(N)[nH]c21; remark: listed apart in the source
Description: TP_TRANSPORTER: uptake (pH 6.2) in PEPT1-expressing CHO cells

[5] = substrate: CC(C)[C@H](N)C(=O)OCCOCn1cnc2c(=O)nc(N)[nH]c21; remark: listed apart in the source
Description: TP_TRANSPORTER: uptake (pH 6.8) in PEPT1-expressing CHO cells

B1: Solute carrier family 15 member 1 (Homo sapiens), P46059 (protein)
chain: MGMSKSHSFFGYPLSIFFIVVNEFCERFSYYGMRAILILYFTNFISWDDNLSTAIYHTFVALCYLTPILGALIADSWLGKFKTIVSLSIVYTIGQAVTSVSSINDLTDHNHDGTPDSLPVHVVLSLIGLALIALGTGGIKPCVSAFGGDQFEEGQEKQRNRFFSIFYLAINAGSLLSTIITPMLRVQQCGIHSKQACYPLAFGVPAALMAVALIVFVLGSGMYKKFKPQGNIMGKVAKCIGFAIKNRFRHRSKAFPKREHWLDWAKEKYDERLISQIKMVTRVMFLYIPLPMFWALFDQQGSRWTLQATTMSGKIGALEIQPDQMQTVNAILIVIMVPIFDAVLYPLIAKCGFNFTSLKKMAVGMVLASMAFVVAAIVQVEIDKTLPVFPKGNEVQIKVLNIGNNTMNISLPGEMVTLGPMSQTNAFMTFDVNKLTRINISSPGSPVTAVTDDFKQGQRHTLLVWAPNHYQVVKDGLNQKPEKGENGIRFVNTFNELITITMSGKVYANISSYNASTYQFFPSGIKGFTISSTEIPPQCQPNFNTFYLEFGSAYTYIVQRKNDSCPEVKVFEDISANTVNMALQIPQYFLLTCGEVVFSVTGLEFSYSQAPSNMKSVLQAGWLLTVAVGNIIVLIVAGAGQFSKQWAEYILFAALLLVVCVIFAIMARFYTYINPAEIEAQFDEDEKKNRLEKSNPYFMSGANSQKQM
[1]
  Km: 7.4 mM
[2]
  Km: 2.2 mM
[3]
  Km: 2.7 mM
[4]
  Km: 6.6 mM
[5]
  Km: 5.4 mM
